Tests used:
[1] = system: F9 teratocarcinoma; test: Therapy studies in F9 teratocarcinoma-bearing mice; type: in vivo, mouse
Procedure: In a dose finding study, F9 tumour-bearing mice were randomly grouped (n=5) and injected intravenously (i.v.) into the lateral tail vein when tumours were clearly palpable. […] The therapeutic antibodies were all dissolved in phosphate buffered saline (PBS) and this buffer was also used in the negative control treatment groups. The mice were monitored daily and tumour volume was measured with a calliper (volume=length×width^2×0.5).

[2] = system: F9 teratocarcinoma; test: Ex vivo immunofluorescence of treated F9 tumours; type: in vivo, mouse; conditions: ex vivo immunofluorescence after i.v. administration
Procedure: For ex vivo detection of the localization of the IL4-based immunocytokines and of tumour infiltrating cells after therapy, mice were injected three times with the appropriate proteins as for therapy experiments and sacrificed two days after the last injection. Tumours were excised, embedded in cryoembedding medium (Thermo Scientific) and cryostat sections (10 μm) were stained using the antibodies: Anti-IL4 antibody (eBioscience), CD45 (leukocytes, BD Biosciences), CD4 (CD4+Tcells, BioXCell), CD8 (CD8+Tcells, BioXCell), F4/80 (macrophages, Abcam), Asialo GM1 (NK cells, Wako Pure Chemical Industries), CD45R (B cells, eBioscience), Foxp3 (eBioscience), CD31 (Santa Cruz); and detected with AlexaFluor488 respectively AlexaFluor594 coupled secondary antibodies (Invitrogen). Slides were mounted with fluorescent mounting medium (Dako) and analyzed with an Axioskop2 mot plus microscope (Zeiss).

[3] = system: tumour neovascular structures in murine F9, CT26 and A20 tumours; test: Immunofluorescence on untreated tumour sections; set-up: species or system mouse; conditions: biotinylated protein on F9, CT26 and A20 tumour sections
Description: For detection streptavidin-Alexa Fluor 488 and anti-rat-Alexa Fluor 594 (Invitrogen) were used. Slides were mounted with fluorescent mounting medium (Dako) and analyzed with an Axioskop2 mot plus microscope (Zeiss).

[4] = system: CT26 colon carcinoma; test: Therapy studies in CT26 tumour-bearing mice; conditions: 90 μg i.v. every 48 h
Description: Data represent mean tumour volumes (±SEM), n=5 mice per group. […] Data represent mean tumour volumes (±SEM), n=5 mice per group.
In the description of the below experiments, data are expressed as the mean (±SEM). Differences in tumor volume, % ID/g and Tumor-to-blood ratio between therapeutic groups were compared using Graphpad Prism's repeated measures (mixed model) ANOVA analysis.
Mice were sacrificed when tumour volumes reached a maximum of 2000 mm^3.
In order to study a second immunocompetent mouse model of cancer, the inventors focused on Balb/c mice (obtained from Elevage Janvier [France]) bearing subcutaneous CT26 tumours of colorectal origin.

[5] = system: F9 teratocarcinoma; test: Quantitative biodistribution in F9 tumour-bearing mice; type: in vivo, mouse
Procedure: The in vivo targeting performance was assessed by quantitative biodistribution where 15 μg of radioiodinated fusion protein was injected i.v. into the lateral tail vein of immunocompetent 11-12 week old female Sv129Ev mice (obtained from Charles River [Germany]), bearing sub-cutaneously grafted F9 tumours (for labelling protocol, see (Pasche et al. 2011)). Mice were sacrificed 24 hours after injection, organs were excised, weighed and radioactivity was measured using a Packard Cobra γ counter.

[6] = target: T1, EDA domain of fibronectin (Homo sapiens, UniProt P02751); test: Surface plasmon analysis (BIAcore) on EDA antigen-coated sensor chip; type: binding
T1 construct: surface plasmon analysis (BIAcore) on an EDA antigen-coated sensor chip
Description: The fusion protein was expressed and purified to homogeneity as described for F8-IL4 above.

[7] = system: CTLL2 cells; test: CTLL2 cell proliferation bioactivity assay; type: cell-based; conditions: 24 h
Procedure: The biological activity of murine IL4 was determined by its ability to stimulate the proliferation of CTLL2 cells. […] After incubation at 37° C. for 24 h, cell proliferation was determined with Cell Titer Aqueous One Solution (Promega).

[8] = system: imiquimod (IMQ)-induced ear inflammation in C57BL/6 mice; test: IMQ-induced inflammation model of psoriasis; type: in vivo, mouse
Procedure: C57BL/6 mice (Charles River, Germany) were treated on each side of each ear with 5 mg Aldara cream (containing 0.25 mg Imiquimod). The treatment schedule is illustrated in FIG. 11A. The Aldara cream was applied every day for 5 days (on day 1, 2, 3, 4 5 and […]: each application is illustrated by an asterisk in FIG. 11A). Ear thickness was measured with a caliper before the application of the cream. […] Treatment was repeated on day 9 and 11 (each treatment event is illustrated by an arrow in FIG. 11A).

[9] = system: experimental autoimmune encephalomyelitis (EAE) in C57/BL6 mice; test: Experimental autoimmune encephalomyelitis (EAE) model of multiple sclerosis; type: in vivo, mouse
Description: 36 C57/BL6 mice were immunized with MOG35-55/CFA and pertussis toxin by injection as reported in McCarthy et al. (2012) to induce experimental autoimmune encephalomyelitis (EAE), a model for multiple sclerosis (MS). Mice were scored daily and using a grading system from 0 to 5 reflecting progressive paralysis (McCarthy et al., 2012). Any mouse with newly developed clinical signs of EAE was assigned to one of three groups in a balanced manner. Treatment started on the day of assignment to a group (first day after EAE onset). Mice in the F8-murine IL4 treatment group (SEQ ID NO: 21) (indicated by circles in FIG. 18) received a total of three i.v. injection of 200 μg each (200 μl of a 1 mg/ml solution), every third day (see black arrows in FIG. 18). Mice in the Fingolimod (FTY720) treatment group (indicated by squares in FIG. 18) received daily oral gavage at a dose of 1 mg/kg (see open arrows in FIG. 18).

[10] = system: endometriotic lesions in Balb/c mice; test: Endometriosis model in Balb/c mice; type: in vivo, mouse
Procedure: Endometriosis was induced in sixty eight-week old female Balb/c mice according to the protocol described by Somigliana et al. (1999).
One day after the implantation of endometrial tissue, pairs of mice (who received tissue from the same donor) were treated either with intravenous (i.v.) injections of F8-murine IL4 (200 μg/mouse; SEQ ID NO: 21) or PBS (group 1); or with i.v. injections of KSF-murine IL4 (200 μg/mouse; SEQ ID NO: 44) or PBS (group 2). The same treatment was repeated at days 4 and 7. Mice were sacrificed at day 15.

[11] = 15 μg radioiodinated protein i.v., 24 hours
[12] = 200 μg/mouse i.v. days 1, 4, 7, day 15, vs PBS

T1 sequence (P02751 1727-1814 limits assumed): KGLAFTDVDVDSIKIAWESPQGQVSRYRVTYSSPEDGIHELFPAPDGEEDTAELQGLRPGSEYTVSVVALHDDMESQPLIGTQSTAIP

B1: F8-IL4: antibody F8 (anti-EDA of fibronectin) in diabody format fused at the C-terminus to murine interleukin 4 via 15 amino acid linker (protein)
chain: EVQLLESGGGLVQPGGSLRLSCAASGFTFSLFTMSWVRQAPGKGLEWVSAISGSGGSTYYADSVKGRFTISRDNSKNTLYLQMNSLRAEDTAVYYCAKSTHLYLFDYWGQGTLVTVSSGGSGGEIVLTQSPGTLSLSPGERATLSCRASQSVSMPFLAWYQQKPGQAPRLLIYGASSRATGIPDRFSGSGSGTDFTLTISRLEPEDFAVYYCQQMRGRPPTFGQGTKVEIKSSSSGSSSSGSSSSGHIHGCDKNHLREIIGILNEVTGEGTPCTEMDVPNVLTATKNTTESELVCRASKVLRIFYLKHGKTPCLKKNSSVLMELQRLFRAFRCLDSSISCTMNESKSTSLKDFLESLKSIMQMDYS
modifications: Synthetic sequence Amino acid sequence of F8 -(murine) IL4 of PCT/EP2014/053998
notes: antibody F8 (anti-EDA of fibronectin) in diabody format fused at the C-terminus to murine interleukin 4 via 15 amino acid linker
tumour retardation in dose finding study ([1]; 90 μg compared with 45 μg, i.v. every second day): best tumour retardation results
therapeutic effect compared with KSF-IL4 ([1]; 90 μg i.v. every second day): substantially more potent
cure of F9 tumours by treatment alone ([1]; monotherapy): not cured
single-agent therapeutic activity ([1]; mouse, in vivo): potent single-agent therapeutic activity
accumulation on CD31-positive tumour neo-vascular structures [2]: preferential accumulation
recognition of tumour neovascular structures [3]: able to recognize tumour neovascular structures
therapeutic performance [4]: superior therapeutic performance compared to KSF-IL4
accumulation at the tumour site (% ID/g) [5, 11]: preferential accumulation
tumour-to-blood ratio [5, 11]: 12
clearance from the blood stream ([5]; 24 hours after i.v. injection): fast clearance from the blood stream
affinity for the cognate antigen [6]: retained a high-affinity for the cognate antigen
EC50 ([7]; CTLL2 cells, 20000 cells/well): 0.023 nM
biological cytokine activity ([7]; CTLL2 proliferation): comparable to that of recombinant murine IL4
ear thickness ([8]; 100 μg i.v. days 7, 9, 11, day 13, vs PBS or KSF-IL4): significantly reduced ear thickness
ear draining lymph nodes (weight) ([8]; day 13): smaller
decrease in ear thickness from treatment initiation (day 7) ([8]; mouse, in vivo): significantly more than in mice receiving either PBS, F8-SIP or KSF-IL4 treatment
EAE severity compared with fingolimod ([9]; fingolimod 1 mg/kg daily oral gavage): not significantly different
EAE severity compared with PBS ([9]; three i.v. injections of 200 μg, every third day): significantly reduced EAE severity
mice completely cured of the disease ([10]; 200 μg/mouse i.v.): three mice out of ten
number of the endometriotic lesions [10, 12]: statistically significant reduction
volume of the endometriotic lesions [10, 12]: statistically significant reduction

From patent publication US20160200789A1, “IL4 CONJUGATED TO ANTIBODIES AGAINST EXTRACELLULAR MATRIX COMPONENTS” (PHILOGEN S.P.A., priority 2013, published 2016)
